Experimental findings from patent US20250347696A1, “SELF-ACTIVATING FÖRSTER RESONANCE ENERGY TRANSFER (saFRET) BIOSENSORS AND METHODS FOR MAKING AND USING THEM” (The Regents of the University of California, priority 2021, published 2025) are described below.

Series [1] concerns the target parental (WT) ZAP70 FRET biosensor with LAT Y191 substrate … (SEQ ID NO:107), kinase domain removed. The experiment in a line: cell-based or functional assay.
The target of series [2] is improved ZAP70 FRET biosensor with substrate … (SEQ ID NO:113), kinase domain removed. Kind of series: cell-based or functional assay.
For series [3] the target is unchanged.

B1: ZAP70 kinase (Zeta-chain-associated protein kinase 70), endogenous in Jurkat T cells (protein)
chain: MPDPAAHLPFFYGSISRAEAEEHLKLAGMADGLFLLRQCLRSLGGYVLSLVHDVRFHHFPIERQLNGTYAIAGGKAHCGPAELCEFYSRDPDGLPCNLRKPCNRPSGLEPQPGVFDCLRDAMVRDYVRQTWKLEGEALEQAIISQAPQVEKLIATTAHERMPWYHSSLTREEAERKLYSGAQTDGKFLLRPRKEQGTYALSLIYGKTVYHYLISQDKAGKYCIPEGTKFDTLWQLVEYLKLKADGLIYCLKEACPNSSASNASGAAAPTLPAHPSTLTHPQRRIDTLNSDGYTPEPARITSPDKPRPMPMDTSVYESPYSDPEELKDKKLFLKRDNLLIADIELGCGNFGSVRQGVYRMRKKQIDVAIKVLKQGTEKADTEEMMREAQIMHQLDNPYIVRLIGVCQAEALMLVMEMAGGGPLHKFLVGKREEIPVSNVAELLHQVSMGMKYLEEKNFVHRDLAARNVLLVNRHYAKISDFGLSKALGADDSYYTARSAGKWPLKWYAPECINFRKFSSRSDVWSYGVTMWEALSYGQKPYKKMKGPEVMAFIEQGKRMECPPECPPELYALMSDCWIYKWEDRPDFLTVEQRMRACYYSLASKVEGPPGSTQKAEAACA
As to B1, the ECFP/FRET ratio change (sensitivity) of the biosensor in Jurkat T cells upon CD3/CD28-antibody stimulation in series [1] was 5.8%; in series [2], 25%. For the same molecule, in series [3], the increase in sensitivity compared to the parental template (SREYVNVSGEL) was above 4 fold.
